What all share (test): cell-based or functional assay
The target in assay [1] is MMP13 (human, UniProt P45452 104-471, limits assumed).
In assay [2] the target is T1, ADAMTS5 (human, UniProt Q9UNA0 262-622, limits assumed).
T1 sequence (looked up): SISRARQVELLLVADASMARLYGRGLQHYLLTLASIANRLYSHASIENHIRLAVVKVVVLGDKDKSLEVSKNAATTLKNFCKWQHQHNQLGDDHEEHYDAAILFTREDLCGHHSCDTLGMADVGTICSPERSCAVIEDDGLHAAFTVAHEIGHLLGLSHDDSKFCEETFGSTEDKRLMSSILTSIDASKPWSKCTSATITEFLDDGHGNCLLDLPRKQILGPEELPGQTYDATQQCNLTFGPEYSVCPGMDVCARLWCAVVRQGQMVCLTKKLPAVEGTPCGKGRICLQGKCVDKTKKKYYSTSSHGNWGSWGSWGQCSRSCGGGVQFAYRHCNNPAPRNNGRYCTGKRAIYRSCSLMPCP

For assay [3], the target named is T2, ADAMTS4 (human, UniProt O75173 213-685, limits assumed).
T2 sequence (looked up): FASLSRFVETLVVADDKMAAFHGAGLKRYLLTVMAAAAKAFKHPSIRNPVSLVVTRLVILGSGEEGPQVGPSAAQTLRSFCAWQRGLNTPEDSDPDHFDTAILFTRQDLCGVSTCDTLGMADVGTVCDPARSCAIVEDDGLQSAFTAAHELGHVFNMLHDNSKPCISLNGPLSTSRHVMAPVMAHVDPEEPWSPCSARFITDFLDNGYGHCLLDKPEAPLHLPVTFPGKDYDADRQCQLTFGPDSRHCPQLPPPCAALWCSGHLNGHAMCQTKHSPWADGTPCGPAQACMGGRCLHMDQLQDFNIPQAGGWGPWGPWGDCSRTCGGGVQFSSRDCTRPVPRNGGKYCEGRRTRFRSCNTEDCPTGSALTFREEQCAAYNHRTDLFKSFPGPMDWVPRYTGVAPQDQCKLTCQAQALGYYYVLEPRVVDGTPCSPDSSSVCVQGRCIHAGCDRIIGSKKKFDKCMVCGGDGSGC

B1: Variant A2M, bait region SEQ ID NO 123 (other)
chain: SVSGKPQYMVLVPSLLHTETTEKGCVLLSYLNETVTVSASLESVRGNRSLFTDLEAENDVLHCVAFAVPKSSSNEEVMFLTVQVKGPTQEFKKRTTVMVKNEDSLVFVQTDKSIYKPGQTVKFRVVSMDENFHPLNELIPLVYIQDPKGNRIAQWQSFQLEGGLKQFSFPLSSEPFQGSYKVVVQKKSGGRTEHPFTVEEFVLPKFEVQVTVPKIITILEEEMNVSVCGLYTYGKPVPGHVTVSICRKYSDASDCHGEDSQAFCEKFSGQLNSHGCFYQQVKTKVFQLKRKEYEMKLHTEAQIQEEGTVVELTGRQSSEITRTITKLSFVKVDSHFRQGIPFFGQVRLVDGKGVPIPNKVIFIRGNEANYYSNATTDEHGLVQFSINTTNVMGTSLTVRVNYKDRSPCYGYQWVSEEHEEAHHTAYLVFSPSKSFVHLEPMSHELPCGHTQTVQAHYILNGGTLLGLKKLSFYYLIMAKGGIVRTGTHGLLVKQEDMKGHFSISIPVKSDIAPVARLLIYAVLPTGDVIGDSAKYDVENCLANKVDLSFSPSQSLPASHAHLRVTAAPQSVCALRAVDQSVLLMKPDAELSASSVYNLLPEKDLTGFPGPLNDQDDEDCINRHNVYINGITYTPVSSTNEKDMYSFLEDMGLKAFTNSKIRKPKMCPQLESQELGQRESESEGSELEGRGSGFKEGVEGKEEEGLGSGFFGFPIGKLRKYFPETWIWDLVVVNSAGVAEVGVTVPDTITEWKAGAFCLSEDAGLGISSTASLRAFQPFFVELTMPYSVIRGEAFTLKATVLNYLPKCIRVSVQLEASPAFLAVPVEKEQAPHCICANGRQTVSWAVTPKSLGNVNFTVSAEALESQELCGTEVPSVPEHGRKDTVIKPLLVEPEGLEKETTFNSLLCPSGGEVSEELSLKLPPNVVEESARASVSVLGDILGSAMQNTQNLLQMPYGCGEQNMVLFAPNIYVLDYLNETQQLTPEIKSKAIGYLNTGYQRQLNYKHYDGSYSTFGERYGRNQGNTWLTAFVLKTFAQARAYIFIDEAHITQALIWLSQRQKDNGCFRSSGSLLNNAIKGGVEDEVTLSAYITIALLEIPLTVTHPVVRNALFCLESAWKTAQEGDHGSHVYTKALLAYAFALAGNQDKRKEVLKSLNEEAVKKDNSVHWERPQKPKAPVGHFYEPQAPSAEVEMTSYVLLAYLTAQPAPTSEDLTSATNIVKWITKQQNAQGGFSSTQDTVVALHALSKYGAATFTRTGKAAQVTIQSSGTFSSKFQVDNNNRLLLQQVSLPELPGEYSMKVTGEGCVYLQTSLKYNILPEKEEFPFALGVQTLPQTCDEPKAHTSFQISLSVSYTGSRSASNMAIVDVKMVSGFIPLKPTVKMLERSNHVSRTEVSSNHVLIYLDKVSNQTLSLFFTVLQDVPVRDLKPAIVKVYDYYETDEFAIAEYNAPCSKDLGNADYKDDDDKGASHHHHHH
Turning to B1, the “Protease Inhibition (% of WT)” value is 122 % of WT in assay [1], 126 % of WT in assay [2] and 86 % of WT in assay [3].

B2: Variant A2M, bait region SEQ ID NO 121 (other)
chain: SVSGKPQYMVLVPSLLHTETTEKGCVLLSYLNETVTVSASLESVRGNRSLFTDLEAENDVLHCVAFAVPKSSSNEEVMFLTVQVKGPTQEFKKRTTVMVKNEDSLVFVQTDKSIYKPGQTVKFRVVSMDENFHPLNELIPLVYIQDPKGNRIAQWQSFQLEGGLKQFSFPLSSEPFQGSYKVVVQKKSGGRTEHPFTVEEFVLPKFEVQVTVPKIITILEEEMNVSVCGLYTYGKPVPGHVTVSICRKYSDASDCHGEDSQAFCEKFSGQLNSHGCFYQQVKTKVFQLKRKEYEMKLHTEAQIQEEGTVVELTGRQSSEITRTITKLSFVKVDSHFRQGIPFFGQVRLVDGKGVPIPNKVIFIRGNEANYYSNATTDEHGLVQFSINTTNVMGTSLTVRVNYKDRSPCYGYQWVSEEHEEAHHTAYLVFSPSKSFVHLEPMSHELPCGHTQTVQAHYILNGGTLLGLKKLSFYYLIMAKGGIVRTGTHGLLVKQEDMKGHFSISIPVKSDIAPVARLLIYAVLPTGDVIGDSAKYDVENCLANKVDLSFSPSQSLPASHAHLRVTAAPQSVCALRAVDQSVLLMKPDAELSASSVYNLLPEKDLTGFPGPLNDQDDEDCINRHNVYINGITYTPVSSTNEKDMYSFLEDMGLKAFTNSKIRKPKMCPQLEPESSGEAIPMSIPTSEDLVVQIPENFFGVEAEGTGGERGVLGKLRKYFPETWIWDLVVVNSAGVAEVGVTVPDTITEWKAGAFCLSEDAGLGISSTASLRAFQPFFVELTMPYSVIRGEAFTLKATVLNYLPKCIRVSVQLEASPAFLAVPVEKEQAPHCICANGRQTVSWAVTPKSLGNVNFTVSAEALESQELCGTEVPSVPEHGRKDTVIKPLLVEPEGLEKETTFNSLLCPSGGEVSEELSLKLPPNVVEESARASVSVLGDILGSAMQNTQNLLQMPYGCGEQNMVLFAPNIYVLDYLNETQQLTPEIKSKAIGYLNTGYQRQLNYKHYDGSYSTFGERYGRNQGNTWLTAFVLKTFAQARAYIFIDEAHITQALIWLSQRQKDNGCFRSSGSLLNNAIKGGVEDEVTLSAYITIALLEIPLTVTHPVVRNALFCLESAWKTAQEGDHGSHVYTKALLAYAFALAGNQDKRKEVLKSLNEEAVKKDNSVHWERPQKPKAPVGHFYEPQAPSAEVEMTSYVLLAYLTAQPAPTSEDLTSATNIVKWITKQQNAQGGFSSTQDTVVALHALSKYGAATFTRTGKAAQVTIQSSGTFSSKFQVDNNNRLLLQQVSLPELPGEYSMKVTGEGCVYLQTSLKYNILPEKEEFPFALGVQTLPQTCDEPKAHTSFQISLSVSYTGSRSASNMAIVDVKMVSGFIPLKPTVKMLERSNHVSRTEVSSNHVLIYLDKVSNQTLSLFFTVLQDVPVRDLKPAIVKVYDYYETDEFAIAEYNAPCSKDLGNADYKDDDDKGASHHHHHH
As for B2, the “Protease Inhibition (% of WT)” value was 115 % of WT in assay [1], 68 % of WT in assay [2] and 64 % of WT in assay [3].

The values are drawn from patent publication US20230250154A1 (CYTONICS, published 2023).
